In paper PMC5932034, “Structures of chaperone-substrate complexes docked onto the export gate in a type III secretion system” (Nature Communications, 2018):

Columns and labels:
Conditions in all cases: both partners purified
[1] = target: T1, FliS (UniProt P26609 1-135); experiment: crystal structure; ternary complexes of FlhA^C with the fused chaperone–substrate constructs; proteins at 10 g/L
T1 construct: FliS, flagellar chaperone of flagellin FliC; Used free in the NMR titration; in the crystal structure it stands as the FliS part of the fused chain m10; also called flagellar chaperone FliS; substrate-free FliS; source: E. coli BL21(DE3), purified (Ni Sepharose, TEV tag removal, Superdex 75)
T1 sequence: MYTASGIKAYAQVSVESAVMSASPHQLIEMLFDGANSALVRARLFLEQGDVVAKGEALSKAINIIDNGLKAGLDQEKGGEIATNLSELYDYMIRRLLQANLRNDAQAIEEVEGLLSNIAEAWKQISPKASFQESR

[2] = target: T2, FliT (Salmonella enterica serovar Typhimurium …, UniProt P0A1N2 1-122); experiment: as above
T2 construct: FliT, flagellar chaperone of FliD, Salmonella enterica serovar Typhimurium ST313; Used free in the NMR titration; in the structures it stands as the FliT part of the fused chain m9; also called flagellar chaperone FliT; substrate-free FliT; source: E. coli BL21(DE3), purified (Ni Sepharose, TEV tag removal, Superdex 75)
T2 sequence: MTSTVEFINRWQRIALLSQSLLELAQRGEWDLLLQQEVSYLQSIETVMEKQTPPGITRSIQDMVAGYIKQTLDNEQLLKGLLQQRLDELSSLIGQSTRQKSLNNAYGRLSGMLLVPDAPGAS

[3] = target: T3, cytoplasmic domain of Salmonella enterica serovar Typhimurium FlhA (FlhA^C) (Salmonella enterica serovar Typhimurium …, UniProt P40729 362-692); experiment: ITC; FlhA^C and variants (0.1–0.2 mM) in the cell, FliT-FliD, FliS-FliC and variants (1.0–2.0 mM) in the syringe; 25 °C; 50 mM NaPi pH 6.8, 300 mM NaCl, 0.05% NaN3; one-site binding model
T3 construct: FlhA, globular cytoplasmic domain, Salmonella enterica serovar Typhimurium ST313, residues 362-692 (36.4 kDa); also called export gate platform protein; source: E. coli BL21(DE3), purified (Ni Sepharose, TEV tag removal, Superdex 75)
T3 sequence: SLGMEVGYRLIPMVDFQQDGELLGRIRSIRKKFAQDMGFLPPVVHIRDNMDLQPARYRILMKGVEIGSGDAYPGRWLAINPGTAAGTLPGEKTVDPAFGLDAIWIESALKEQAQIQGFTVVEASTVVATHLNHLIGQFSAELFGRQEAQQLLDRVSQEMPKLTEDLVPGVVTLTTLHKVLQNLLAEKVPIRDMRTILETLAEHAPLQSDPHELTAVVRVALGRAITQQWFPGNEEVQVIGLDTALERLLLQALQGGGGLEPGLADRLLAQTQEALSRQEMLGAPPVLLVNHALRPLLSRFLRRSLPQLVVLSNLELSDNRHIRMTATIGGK

[4] = target: T3, cytoplasmic domain of Salmonella …; experiment: NMR titration; unlabelled partner added to isotopically labelled FlhA^C (and unlabelled FlhA^C to labelled chaperone–substrate complex); 25 °C; 50 mM NaPi pH 6.8, 300 mM NaCl, 0.05% NaN3; typically 0.3 mM labelled protein

B1: FliC^C (FliC residues 454–495) (domain or fragment)
chain: IEDSDYATEVSNMSRAQILQQAGTSVLAQANQVPQNVLSLLR
notes: FliC^C: flagellin FliC residues 454-495;; source: E. coli BL21(DE3), purified; stands as a part of the fused chain m10
- binding result [1]: binds

B2: FliD^C (last 40 C-terminal residues of FliD) (domain or fragment)
chain: SIDETVARYKAQFTQLDTMMSKLNNTSSYLTQQFTAMNKS
notes: source: E. coli BL21(DE3), purified; stands as a part of the fused chain m9
- binding result [2]: binds

B3: FliS−FliC chaperone–substrate complex (non-fused) (complex)
chain 1: T1 sequence
chain 2: […]
notes: FliS; FliC, flagellin; Complex formed beforehand and added to FlhA^C; source: E. coli BL21(DE3), purified (Ni Sepharose, TEV tag removal, Superdex 75)
- Kd [3]: ~8 µM

B4: FlgN (natural protein)
chain: MTRLSEILDQMTTVLNDLKTVMDAEQQQLSVGQINGSQLQRITEEKSSLLATLDYLEQQRRLEQNAQRSANDDIAERWQAITEKTQHLRDLNQHNGWLLEGQIERNQQALEVLKPHQEPTLYGADGQTSVSHRGGKKISI
notes: FlgN, chaperone of FlgK and FlgL, Salmonella enterica serovar Typhimurium ST313; also called chaperone FlgN; FlgN without substrate; source: E. coli BL21(DE3), purified (Ni Sepharose, TEV tag removal, Superdex 75)
- binding result [4]: binds
